Reference: patent EP3873932A1

Tests used:
[1] = biological target: human amyloidomas (all implanted human amyloid extracts); assay: in vivo microPET
[2] = biological target: human amyloidomas (all implanted human amyloid extracts); assay: in vivo microPET, 4 days after tracer injection
[3] = biological target: human amyloidomas of kappa subtypes; assay: in vivo microPET of mice implanted with kappa subtype amyloid
[4] = biological target: human amyloidomas of lambda subtypes; assay: in vivo microPET of mice implanted with lambda subtype amyloid

T:B uptake (amyloid deposit-to-background) [1]: > 2.1
T:B ratio (amyloid deposit-to-background, SUVmax) [2]: 2.1 to 4.2
T:B ratio (amyloid deposit-to-background, SUVmax) [3]: 4.1
T:B ratio (amyloid deposit-to-background, SUVmax) [4]: 2.8
B1: [124I]CAEL-101 (antibody, human IgG1, V domains shown)
VH: QVQLKESGPGLVAPSQSLSITCTVSGFSLSSYGVSWVRQPPGKGLEWLGVIWGDGSTNYHPNLMSRLSISKDISKSQVLFKLNSLQTDDTATYYCVTLDYWGQGTSVTVSS
VL: DVVMTQTPLSLPVSLGDQASISCRSSQSLVHRNGNTYLHWYLQKPGQSPKLLIYKVSNRFSGVPRDFSGSGSGTDFTLKISRVEAEDLGLYFCFQTTYVPNTFGGGTKLEIK
modifications: 124I radiolabel by the standard iodogen reaction (residues and chain not stated)
